Results from FireProtDB (doi:10.1016/s0301-4622(99)00140-4).

Settings: Bos taurus, pH 8, Thermal, DSC, Tris 10 mM, whole UniProt chain shown

B1: Alpha-lactalbumin wild type, P00711 (protein)
chain: MMSFVSLLLVGILFHATQAEQLTKCEVFRELKDLKGYGGVSLPEWVCTTFHTSGYDTQAIVQNNDSTEYGLFQINNKIWCKDDQNPHSSNICNISCDKFLDDDLTDDIMCVKKILDKVGINYWLAHKALCSEKLDQWLCEKL
- Tm (CaCl2 0.0 mM): 64.1 °C
- unfolding enthalpy (calorimetric) (CaCl2 0.0 mM): 271 kJ/mol
- Tm (CaCl2 0.1 mM): 65.2 °C
- unfolding enthalpy (calorimetric) (CaCl2 0.1 mM): 298 kJ/mol
- Tm (CaCl2 1.0 mM): 67.9 °C
- unfolding enthalpy (calorimetric) (CaCl2 1.0 mM): 316 kJ/mol
- Tm (CaCl2 2.0 mM): 68.9 °C
- unfolding enthalpy (calorimetric) (CaCl2 2.0 mM): 318 kJ/mol
- Tm (CaCl2 10.0 mM): 70 °C
- unfolding enthalpy (calorimetric) (CaCl2 10.0 mM): 314 kJ/mol
